Non-standard residues stand in square brackets, D forms with d. No end group written: not given here. Trp(6-Br) = N[C@@H](Cc1c[nH]c2cc(Br)ccc12)C(=O)O; dTrp(6-Br) = N[C@H](Cc1c[nH]c2cc(Br)ccc12)C(=O)O
T1: human GPR7 (human, UniProt P48145 1-328)
T1 sequence: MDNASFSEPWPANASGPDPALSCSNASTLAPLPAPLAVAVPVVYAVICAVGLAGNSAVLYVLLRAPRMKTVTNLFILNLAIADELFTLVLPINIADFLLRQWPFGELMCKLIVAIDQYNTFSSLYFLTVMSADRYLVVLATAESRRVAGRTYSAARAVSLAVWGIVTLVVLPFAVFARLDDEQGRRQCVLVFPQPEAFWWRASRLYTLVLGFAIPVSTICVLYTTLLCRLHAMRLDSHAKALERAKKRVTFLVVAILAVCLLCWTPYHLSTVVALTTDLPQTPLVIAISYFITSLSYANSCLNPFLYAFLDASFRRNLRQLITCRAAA

T2: bovine GPR7 (bovine, UniProt Q8MJV3 1-331)
T2 sequence: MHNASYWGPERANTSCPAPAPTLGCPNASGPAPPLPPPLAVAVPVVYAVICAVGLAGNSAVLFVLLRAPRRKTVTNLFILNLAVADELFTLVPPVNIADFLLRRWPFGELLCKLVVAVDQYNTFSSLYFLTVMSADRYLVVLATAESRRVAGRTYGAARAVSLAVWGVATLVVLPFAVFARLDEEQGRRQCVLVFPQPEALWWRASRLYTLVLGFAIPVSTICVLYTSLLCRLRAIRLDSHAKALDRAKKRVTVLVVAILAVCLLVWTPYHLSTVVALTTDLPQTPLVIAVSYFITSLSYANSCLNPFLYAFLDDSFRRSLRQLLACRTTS

T3: bovine GPR8 (bovine, UniProt Q8MJV2 1-336)
T3 sequence: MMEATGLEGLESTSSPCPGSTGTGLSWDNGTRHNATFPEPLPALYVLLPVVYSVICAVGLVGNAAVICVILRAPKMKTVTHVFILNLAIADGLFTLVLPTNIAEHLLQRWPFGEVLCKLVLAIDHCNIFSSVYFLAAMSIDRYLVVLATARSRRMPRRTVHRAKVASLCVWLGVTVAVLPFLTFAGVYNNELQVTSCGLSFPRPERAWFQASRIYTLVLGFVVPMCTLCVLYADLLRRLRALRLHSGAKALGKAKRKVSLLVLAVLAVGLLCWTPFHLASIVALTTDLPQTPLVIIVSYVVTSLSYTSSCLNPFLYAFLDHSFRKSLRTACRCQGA

T4: rat GPR7 (rat TGR26) (rat, UniProt Q56UD9 1-329)
T4 sequence: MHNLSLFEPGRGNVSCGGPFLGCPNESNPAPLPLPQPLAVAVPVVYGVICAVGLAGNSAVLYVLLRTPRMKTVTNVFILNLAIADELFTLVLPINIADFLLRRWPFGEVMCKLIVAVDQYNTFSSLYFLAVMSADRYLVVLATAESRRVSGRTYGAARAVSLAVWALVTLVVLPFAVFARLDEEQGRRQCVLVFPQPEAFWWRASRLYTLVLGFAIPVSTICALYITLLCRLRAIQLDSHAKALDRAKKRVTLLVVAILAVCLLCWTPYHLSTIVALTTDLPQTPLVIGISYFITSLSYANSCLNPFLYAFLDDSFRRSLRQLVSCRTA

B1: DTrp(6Br)1-human GPR7L(29) (peptide)
peptide: [dTrp(6-Br)]YKPAAGHSSYSVGRAAGLLSGLRRSPYA
B2: Trp1-rat GPR7L(29) (peptide)
peptide: WYKPAAGSHHYSVGRAAGLLSSFHRFPST
notes: also called rat GPR7 ligand B
B3: Trp1-bovine GPR7L(29) (peptide)
peptide: WYKPTAGQGYYSVGRAAGLLSGFHRSPYA
notes: also called bovine GPR7 ligand B; non-brominated GPR7L
B4: Trp1-human GPR7L(23) (peptide)
peptide: WYKPAAGHSSYSVGRAAGLLSGL
B5: LTrp(6Br)1-human GPR7L(29) (peptide)
peptide: [Trp(6-Br)]YKPAAGHSSYSVGRAAGLLSGLRRSPYA
B6: DTrp(6Br)1-bovine GPR7L(29) (peptide)
peptide: [dTrp(6-Br)]YKPTAGQGYYSVGRAAGLLSGFHRSPYA
B7: LTrp(6Br)1-bovine GPR7L(29) (peptide)
peptide: [Trp(6-Br)]YKPTAGQGYYSVGRAAGLLSGFHRSPYA
B8: Trp1-rat GPR7L(24) (peptide)
peptide: WYKPAAGSHHYSVGRAAGLLSSFH
notes: also called rat GPR7 ligand A

What follows are binders tested against T1, human GPR7 (assay: cell-based or functional assay).

Row | IC50 of intracellular cAMP production suppression (cAMP production inhibition rate) | Binder
1 | 106 nM | B1
2 | 0.86 nM | B2
3 | 0.43 nM | B3
4 | 0.58 nM | B4
5 | 0.44 nM | B5
6 | 35 nM | B6
7 | 0.58 nM | B7
8 | 0.31 nM | B8

What follows are binders tested against human GPR8 (human, UniProt P48146 1-333) (assay: cell-based or functional assay).
human GPR8, sequence (P48146 whole entry): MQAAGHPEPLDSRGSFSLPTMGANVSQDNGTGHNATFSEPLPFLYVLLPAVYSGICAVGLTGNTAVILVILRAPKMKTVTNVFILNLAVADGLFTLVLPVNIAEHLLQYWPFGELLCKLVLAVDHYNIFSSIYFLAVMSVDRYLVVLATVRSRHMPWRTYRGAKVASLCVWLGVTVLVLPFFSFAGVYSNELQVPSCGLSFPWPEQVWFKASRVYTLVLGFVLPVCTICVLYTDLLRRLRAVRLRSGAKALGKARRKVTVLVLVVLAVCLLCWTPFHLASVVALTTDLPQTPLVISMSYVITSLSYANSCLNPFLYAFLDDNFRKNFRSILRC

Row | IC50 of intracellular cAMP production suppression (cAMP production inhibition rate) | Binder
9 | 770 nM | B1
10 | 8.8 nM | B2
11 | 8.1 nM | B3
12 | 32 nM | B5
13 | 198 nM | B6
14 | 9.7 nM | B7
15 | 2.8 nM | B8

These binders were tested against T2, bovine GPR7 (assay: cell-based or functional assay).

Row | IC50 of intracellular cAMP production suppression (cAMP production inhibition rate) | Binder
16 | 360 nM | B1
17 | 1.2 nM | B2
18 | 1.2 nM | B3
19 | 1.8 nM | B5
20 | 77 nM | B6
21 | 1.9 nM | B7
22 | 0.51 nM | B8

What follows are binders tested against T3, bovine GPR8 (assay: cell-based or functional assay).

Row | IC50 of intracellular cAMP production suppression (cAMP production inhibition rate) | Binder
23 | 424 nM | B1
24 | 14 nM | B2
25 | 5.4 nM | B3
26 | 51 nM | B5
27 | 34 nM | B6
28 | 4 nM | B7
29 | 3.5 nM | B8

What follows are binders tested against T4, rat GPR7 (rat TGR26) (assay: cell-based or functional assay).

Row | IC50 of intracellular cAMP production suppression (cAMP production inhibition rate) | Binder
30 | 49 nM | B1
31 | 0.3 nM | B2
32 | 0.25 nM | B3
33 | 0.47 nM | B5
34 | 2.5 nM | B6
35 | 0.21 nM | B7
36 | 0.18 nM | B8

What follows are binders tested against T1, human GPR7 (assay: binding inhibition of iodine-labeled hGPR7L-23 on human GPR7-expressed CHO cell membrane fraction).
Procedure: The peptides shown in TABLE 3 are those obtained by diluting the stock solution of […] or 10⁻³ M with the assay buffer in 10⁻⁵ M, 10⁻⁶ M, 10⁻⁷ M, 10⁻⁸ M, 10⁻⁹ M, 10⁻¹⁰ M and 10⁻¹¹ M. As NBS, hGPR7L-23 was prepared in a final concentration of 10⁻⁵ M. The sample solution and NSB prepared were dispensed on a polypropylene-made 96-well plate, the assay buffer was dispensed thereto to make the total volume 50 μl, and 25 μl of the iodine-labeled product dilution was added thereto. After agitation, 25 μl of the solution of human GPR7-expressed CHO cell membrane fraction were dispensed thereto and agitated, followed by incubation at room temperature for 1.5 hour. Using a cell harvester for the 96-well plate, the culture medium was adsorbed onto a filter unit, which had previously been wetted with an assay buffer (50 mM Tris-HCl, pH7.5). After washing 5 times with the assay buffer, the filter unit was thoroughly dried. After 50 μl of a liquid scintillator was dispensed thereto, the radioactivity was counted on a Top Count (Packard) and the data was analyzed in triplet (FIG. 33).

Row | IC50 | Binder
37 | 13 nM | B1
38 | 0.34 nM | B2
39 | 0.31 nM | B3
40 | 0.32 nM | B5
41 | 6.1 nM | B6
42 | 0.34 nM | B7
43 | 0.3 nM | B8
